For the assay, the target named is SNAP-25 (rat) (UniProt P60881). Kind of assay: cell-based or functional assay.

pEC50 (percentage SNAP-25 cleavage in rat eSCN, 24 h, Western blot) data for one substance are collected here from patent US20240175001A1.

Chain of UniProt P60881 (P60881 whole entry): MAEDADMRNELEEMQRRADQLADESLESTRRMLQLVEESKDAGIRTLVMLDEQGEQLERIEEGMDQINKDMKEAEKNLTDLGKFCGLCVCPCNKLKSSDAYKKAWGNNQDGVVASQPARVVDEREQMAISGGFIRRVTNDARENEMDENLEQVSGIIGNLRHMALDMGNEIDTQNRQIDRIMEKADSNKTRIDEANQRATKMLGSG

For the substance native BoNT/A1 (LIST), the pEC50 (percentage SNAP-25 cleavage in rat eSCN, 24 h, Western blot) was 12.3.
